Reference: CN114075278A
Read-outs that look alike come from different tables or passages of the source.

Assays:
流感A抗原 [1] = biological target: 流感A抗原
流感A抗原 [2] = test: biolayer interferometry, AMC sensors, antibody immobilised, antigen in a dilution series
流感A抗原 [3] = test: sandwich ELISA: antibody at 625 ng/ml captured on goat anti-mouse IgG, Flu-A antigen, HRP-labelled paired mAb
流感A抗原 [4] = test: sandwich ELISA: antibody at 1250 ng/ml captured on goat anti-mouse IgG, Flu-A antigen, HRP-labelled paired mAb
流感A抗原 [5] = test: sandwich ELISA: antibody at 2500 ng/ml captured on goat anti-mouse IgG, Flu-A antigen, HRP-labelled paired mAb
流感A抗原 [6] = test: sandwich ELISA: antibody at 5000 ng/ml captured on goat anti-mouse IgG, Flu-A antigen, HRP-labelled paired mAb
流感A抗原 [7] = test: sandwich ELISA: antibody at 312.5 ng/ml captured on goat anti-mouse IgG, Flu-A antigen, HRP-labelled paired mAb

B1: 实施例1的抗Flu-A抗体(WT) (antibody, V domains shown)
VH: EVQLQQSGPELVKPGASVKISCKASGFSFSGYYLHWVRQSPLKSLEWIGRINPYNGGTTYNQDFKGKASLTVDKSSSTAYMELHSLTSEDSAVYYCARYSSVDAMDYWGQGTSVTVSS
VL: QIVLTQSPAIMSASLGERVTMTCTGSSSVLSSYLHWYQQKPGSSPKLWIYSSSNLASGVPARFSGSGSGTSYSLTISSMEAEDAATYYCQQWHRSPWTFGGGTKLEIKR
Q: Which results are given for B1?
A: OD450 (ref 630 nm) (流感A抗原 [1]): > 1 OD; Kd (流感A抗原 [2]): 40.5 nM; OD450 (ref 630 nm) (流感A抗原 [3]): 0.754 OD; OD450 (ref 630 nm) (流感A抗原 [4]): 0.946 OD; OD450 (ref 630 nm) (流感A抗原 [5]): 1.39 OD; OD450 (ref 630 nm) (流感A抗原 [6]): 1.73 OD; OD450 (ref 630 nm) (流感A抗原 [7]): 0.535 OD
